Measured values published in patent publication US20190134153A1, “IMMUNOMODULATORY EFFECT OF INHALED KINASE INHIBITOR PEPTIDES IN LUNG” (MOERAE MATRIX, INC., priority 2017, published 2019).

Columns and labels:
Test in all cases: Kinase Profiling Assay
Format in all cases: biochemical
Settings in all cases: 100 μM
CaMKI(h) = CaMKI(h) (Homo sapiens, UniProt Q14012)
EphA1(h) = target: T1, EphA1(h) (Homo sapiens, UniProt P21709)
T1 sequence (P21709 26-976): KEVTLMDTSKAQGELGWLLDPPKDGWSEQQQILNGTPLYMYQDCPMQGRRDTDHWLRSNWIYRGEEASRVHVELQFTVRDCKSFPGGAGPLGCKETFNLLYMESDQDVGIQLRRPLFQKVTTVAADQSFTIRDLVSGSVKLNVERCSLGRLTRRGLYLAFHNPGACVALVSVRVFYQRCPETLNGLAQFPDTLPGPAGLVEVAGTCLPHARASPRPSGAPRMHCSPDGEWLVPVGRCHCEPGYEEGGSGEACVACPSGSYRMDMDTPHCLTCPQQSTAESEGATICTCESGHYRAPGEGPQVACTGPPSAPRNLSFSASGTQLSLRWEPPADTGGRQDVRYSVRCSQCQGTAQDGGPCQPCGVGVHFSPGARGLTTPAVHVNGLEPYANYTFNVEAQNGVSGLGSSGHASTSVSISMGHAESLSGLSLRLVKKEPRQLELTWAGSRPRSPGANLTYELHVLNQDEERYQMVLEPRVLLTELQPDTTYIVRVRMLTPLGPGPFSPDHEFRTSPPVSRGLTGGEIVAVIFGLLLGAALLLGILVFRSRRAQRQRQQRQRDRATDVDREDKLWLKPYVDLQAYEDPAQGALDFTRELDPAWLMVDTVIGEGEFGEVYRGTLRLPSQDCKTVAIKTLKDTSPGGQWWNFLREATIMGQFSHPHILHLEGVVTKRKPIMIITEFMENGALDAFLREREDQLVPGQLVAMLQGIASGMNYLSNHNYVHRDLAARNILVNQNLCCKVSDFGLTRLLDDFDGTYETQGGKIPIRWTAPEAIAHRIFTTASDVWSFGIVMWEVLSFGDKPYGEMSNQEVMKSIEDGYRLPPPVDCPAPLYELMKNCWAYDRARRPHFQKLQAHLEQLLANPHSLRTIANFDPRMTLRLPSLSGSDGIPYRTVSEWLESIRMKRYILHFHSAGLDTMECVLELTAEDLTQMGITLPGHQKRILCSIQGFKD

FGFR1(V561M)(h) = FGFR1(V561M)(h) (Homo sapiens, UniProt P11362, V561M)
MSK1(h) = MSK1(h) (Homo sapiens, UniProt O75582)
NEK11(h) = target: T2, NEK11(h) (Homo sapiens, UniProt Q8NG66)
T2 sequence (Q8NG66 1-645): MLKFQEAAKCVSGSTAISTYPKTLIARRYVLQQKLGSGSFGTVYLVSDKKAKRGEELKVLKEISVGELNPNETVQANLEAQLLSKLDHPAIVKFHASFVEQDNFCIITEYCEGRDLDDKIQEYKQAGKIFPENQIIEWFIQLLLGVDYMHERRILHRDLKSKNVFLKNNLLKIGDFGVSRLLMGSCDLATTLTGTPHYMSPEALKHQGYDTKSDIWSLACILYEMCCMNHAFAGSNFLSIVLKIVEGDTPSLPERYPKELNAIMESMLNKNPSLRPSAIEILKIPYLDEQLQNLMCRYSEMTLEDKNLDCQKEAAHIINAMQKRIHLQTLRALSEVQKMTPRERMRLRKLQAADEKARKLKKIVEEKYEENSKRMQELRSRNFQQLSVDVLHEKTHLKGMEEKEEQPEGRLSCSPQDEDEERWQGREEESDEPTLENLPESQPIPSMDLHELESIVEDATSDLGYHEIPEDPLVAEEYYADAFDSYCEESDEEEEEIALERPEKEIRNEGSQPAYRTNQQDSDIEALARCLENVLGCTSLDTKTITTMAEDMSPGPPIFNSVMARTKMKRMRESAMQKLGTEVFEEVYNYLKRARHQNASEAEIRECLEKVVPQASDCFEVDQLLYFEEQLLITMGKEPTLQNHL

PKCμ(h) = target: T3, PKCμ(h) (Homo sapiens, UniProt Q15139)
T3 sequence (Q15139 1-912): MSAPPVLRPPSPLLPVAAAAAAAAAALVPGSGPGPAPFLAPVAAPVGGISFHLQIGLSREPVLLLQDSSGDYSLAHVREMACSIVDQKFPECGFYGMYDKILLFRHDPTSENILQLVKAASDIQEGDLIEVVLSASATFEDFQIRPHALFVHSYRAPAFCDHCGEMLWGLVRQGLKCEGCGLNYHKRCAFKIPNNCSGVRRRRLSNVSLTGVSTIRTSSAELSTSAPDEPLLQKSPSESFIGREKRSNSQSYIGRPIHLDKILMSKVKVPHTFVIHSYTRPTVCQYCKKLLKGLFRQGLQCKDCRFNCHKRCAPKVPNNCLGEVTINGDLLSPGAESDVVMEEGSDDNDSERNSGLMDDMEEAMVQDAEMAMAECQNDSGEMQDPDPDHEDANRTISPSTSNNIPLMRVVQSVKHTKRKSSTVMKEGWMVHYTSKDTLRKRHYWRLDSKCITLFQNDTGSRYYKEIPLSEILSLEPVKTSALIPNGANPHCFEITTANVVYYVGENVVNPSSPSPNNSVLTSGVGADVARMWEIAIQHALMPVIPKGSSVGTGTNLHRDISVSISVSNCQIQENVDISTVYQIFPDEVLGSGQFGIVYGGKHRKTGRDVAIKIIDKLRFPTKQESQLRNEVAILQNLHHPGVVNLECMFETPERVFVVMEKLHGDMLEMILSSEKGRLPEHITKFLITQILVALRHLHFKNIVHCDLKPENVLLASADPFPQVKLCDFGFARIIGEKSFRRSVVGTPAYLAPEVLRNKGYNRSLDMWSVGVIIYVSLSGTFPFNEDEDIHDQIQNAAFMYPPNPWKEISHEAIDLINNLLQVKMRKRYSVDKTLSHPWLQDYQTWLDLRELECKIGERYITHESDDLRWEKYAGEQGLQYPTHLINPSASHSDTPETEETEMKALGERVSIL

Ret (V804L)(h) = Ret (V804L)(h) (Homo sapiens, UniProt P07949, V804L)
Yes(h) = Yes(h) (Homo sapiens, UniProt P07947)
Chain of Yes(h) (P07947 whole entry): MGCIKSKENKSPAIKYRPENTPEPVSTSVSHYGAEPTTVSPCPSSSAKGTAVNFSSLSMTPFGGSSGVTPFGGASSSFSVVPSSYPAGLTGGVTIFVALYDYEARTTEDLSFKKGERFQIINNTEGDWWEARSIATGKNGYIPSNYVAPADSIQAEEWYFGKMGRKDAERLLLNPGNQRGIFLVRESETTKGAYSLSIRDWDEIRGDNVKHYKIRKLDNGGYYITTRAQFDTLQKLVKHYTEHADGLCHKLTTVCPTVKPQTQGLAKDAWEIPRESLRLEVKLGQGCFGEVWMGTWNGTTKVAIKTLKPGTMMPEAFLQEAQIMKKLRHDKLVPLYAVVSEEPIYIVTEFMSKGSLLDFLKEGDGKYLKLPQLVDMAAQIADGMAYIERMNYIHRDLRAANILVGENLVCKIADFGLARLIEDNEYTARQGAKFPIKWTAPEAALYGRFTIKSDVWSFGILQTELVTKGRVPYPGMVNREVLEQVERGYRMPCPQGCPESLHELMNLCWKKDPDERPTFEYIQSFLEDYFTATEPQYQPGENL

Chain of FGFR1(V561M)(h) (P11362 22-822 V561M): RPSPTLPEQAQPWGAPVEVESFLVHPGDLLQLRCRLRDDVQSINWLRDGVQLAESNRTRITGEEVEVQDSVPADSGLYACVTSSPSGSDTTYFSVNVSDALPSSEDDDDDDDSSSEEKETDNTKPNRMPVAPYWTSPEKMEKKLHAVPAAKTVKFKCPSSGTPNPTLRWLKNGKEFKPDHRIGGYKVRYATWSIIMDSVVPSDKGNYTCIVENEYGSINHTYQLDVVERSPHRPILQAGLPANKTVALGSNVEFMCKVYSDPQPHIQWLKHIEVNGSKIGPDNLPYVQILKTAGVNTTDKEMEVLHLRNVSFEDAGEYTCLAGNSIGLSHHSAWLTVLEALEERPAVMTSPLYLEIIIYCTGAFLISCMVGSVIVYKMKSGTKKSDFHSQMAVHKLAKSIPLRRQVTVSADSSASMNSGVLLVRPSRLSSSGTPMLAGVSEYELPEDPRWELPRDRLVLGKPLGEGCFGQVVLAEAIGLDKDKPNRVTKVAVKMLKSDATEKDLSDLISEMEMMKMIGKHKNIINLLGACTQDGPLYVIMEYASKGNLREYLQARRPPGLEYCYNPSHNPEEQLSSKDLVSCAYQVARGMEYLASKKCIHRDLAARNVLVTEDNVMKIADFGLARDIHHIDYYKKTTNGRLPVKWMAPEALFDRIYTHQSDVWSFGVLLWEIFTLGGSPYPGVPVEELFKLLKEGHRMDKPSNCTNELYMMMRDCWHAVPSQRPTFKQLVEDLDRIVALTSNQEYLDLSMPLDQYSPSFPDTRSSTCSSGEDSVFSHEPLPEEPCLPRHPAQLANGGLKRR
Chain of MSK1(h) (O75582 whole entry): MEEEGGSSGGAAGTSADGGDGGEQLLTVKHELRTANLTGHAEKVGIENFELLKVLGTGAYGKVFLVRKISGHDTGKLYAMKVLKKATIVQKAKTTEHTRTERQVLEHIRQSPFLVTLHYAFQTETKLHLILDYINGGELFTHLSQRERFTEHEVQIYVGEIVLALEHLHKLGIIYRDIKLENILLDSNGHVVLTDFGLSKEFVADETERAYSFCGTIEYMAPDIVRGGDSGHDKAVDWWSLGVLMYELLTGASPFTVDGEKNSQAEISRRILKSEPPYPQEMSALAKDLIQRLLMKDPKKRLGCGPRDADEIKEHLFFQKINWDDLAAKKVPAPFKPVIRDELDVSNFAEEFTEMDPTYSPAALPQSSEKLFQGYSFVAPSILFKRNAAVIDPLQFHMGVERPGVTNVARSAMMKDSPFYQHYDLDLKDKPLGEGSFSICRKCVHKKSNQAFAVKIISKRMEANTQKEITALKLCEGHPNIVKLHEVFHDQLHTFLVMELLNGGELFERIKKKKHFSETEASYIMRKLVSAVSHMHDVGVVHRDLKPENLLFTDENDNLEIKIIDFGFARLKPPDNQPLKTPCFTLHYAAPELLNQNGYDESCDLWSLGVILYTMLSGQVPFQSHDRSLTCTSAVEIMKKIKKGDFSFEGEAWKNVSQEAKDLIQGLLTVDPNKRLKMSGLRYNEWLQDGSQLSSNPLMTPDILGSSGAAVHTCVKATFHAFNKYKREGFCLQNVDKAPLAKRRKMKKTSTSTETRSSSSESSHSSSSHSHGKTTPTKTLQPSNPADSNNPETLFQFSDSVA
Chain of CaMKI(h) (Q14012 whole entry): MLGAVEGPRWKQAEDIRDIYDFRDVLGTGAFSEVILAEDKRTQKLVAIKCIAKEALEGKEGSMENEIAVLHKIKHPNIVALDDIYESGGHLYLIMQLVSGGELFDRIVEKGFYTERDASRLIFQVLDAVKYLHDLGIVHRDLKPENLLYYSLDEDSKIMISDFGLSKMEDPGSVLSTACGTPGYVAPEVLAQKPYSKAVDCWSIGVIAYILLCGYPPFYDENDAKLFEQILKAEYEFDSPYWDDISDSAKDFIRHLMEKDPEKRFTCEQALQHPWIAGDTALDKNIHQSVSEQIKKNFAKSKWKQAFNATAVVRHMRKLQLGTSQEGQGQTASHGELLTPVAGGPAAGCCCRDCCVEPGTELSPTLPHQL

Sequence: FAKLAARLYRKALARQLGVAA [MMI-0300]
- % activity (CaMKI(h)): 1%
- % activity (EphA1(h)): 73%
- % activity (FGFR1(V561M)(h)): 74%
- % activity (MSK1(h)): 32%
- % activity (NEK11(h)): 53%
- % activity (PKCμ(h)): 22%
- % activity (Ret (V804L)(h)): 79%
- % activity (Yes(h)): 67%

Sequence: HRRIKAWLKKIKALARQLGVAA [MMI-0500]
- % activity (CaMKI(h)): −1%
- % activity (EphA1(h)): 40%
- % activity (MSK1(h)): 8%
- % activity (NEK11(h)): 2%
- % activity (PKCμ(h)): 10%
- % activity (Ret (V804L)(h)): 20%

Sequence: KAFAKLAARLYRKALARQLGVAA [MMI-0400]
- % activity (CaMKI(h)): 0%
- % activity (EphA1(h)): 61%
- % activity (FGFR1(V561M)(h)): 74%
- % activity (MSK1(h)): 28%
- % activity (NEK11(h)): 33%
- % activity (PKCμ(h)): 14%
- % activity (Ret (V804L)(h)): 73%
- % activity (Yes(h)): 14%

Sequence: YARAAARQARAKALNRQLGVA [MMI-0200]
- % activity (CaMKI(h)): 21%
- % activity (FGFR1(V561M)(h)): 72%
- % activity (MSK1(h)): 50%
- % activity (NEK11(h)): 95%
- % activity (PKCμ(h)): 73%
- % activity (Ret (V804L)(h)): 100%
- % activity (Yes(h)): 93%
